Experimental data published in US6645934B1, “Peptide with radio protective effect” (Eberhard-Karls-Universität Tübingen, priority 1997, dated 2003).
Bridges are numbered along the chain shown (N, C = ends).

Legend:
human skin fibroblasts = assay: Clonogenic assay with human skin fibroblasts under UV-B irradiation; format: cell-based; conditions: UV-B radiation at 100 J/m^2, FIG. 6; for increase in clonogenic survival of the human skin fibroblasts compared to the untreated cells: BBI 10 μM, peptides 80 μM; for effect on clonogenic survival compared with complete BBI / effect on clonogenic survival, further increase over that of complete BBI: peptides 80 μM vs BBI 10 μM
Description: (§1) Normal human fibroblasts were cultivated in Dulbecco's Modified Eagles Medium (DMEM) with 10% fetal calf serum under standard conditions. At each cell passage the number of cells was counted, and the cells were seed with a density of 2×10^4/cm^2 when subcultures were set up.
(§2) For the clonogenic assay, secondary fibroblasts were trypsinated with 0.05% trypsin and 0.1 EDTA, and seed at a cell density of 50 cells per cm^2 into six-well tissue culture dishes. The cells were cultivated with 2 ml DMEM with 20% fetal calf serum per well.
(§3) After 24 hours the medium was removed and the cells were incubated for 16 hours either in additive-free control mediums (“0” in the Figures) or in medium that contained 10 μM of either BBI or a modified BBI form or a BBI fragment. The nonapeptides and heptapeptide according to the present invention (see Example 3) were used at a concentration of 80 μM.
(§4) The cells were then cultivated for a further eight days in BBI-free culture medium in order to allow colonies to form. The cells were then fixed, stained, and counted; in the Figures, “K” indicates the absolute number of clones counted.
(§5) A clone is a colony or a cell cluster resulting from the division of one cell during the eight-day cultivation period. The number of clones corresponds to the degree to which the human fibroblasts survived the irradiation. This will therefore also be referred to hereinafter as the “clonogenic survival” of the cells. If many cells die when the cells are irradiated, then only a few clones will form after eight days; if many cells survive, then many clones may be counted after eight days of cultivation. The clonogenic survival of the cells after irradiation is thus a direct indication of the radioprotective effect of the BBI product being used.
Once again a clonogenic assay was performed, using complete BBI or the four peptides P1 through P4.
In this case irradiation was performed with UV-B radiation at 100 J/m^2.

[1] = target: TLCK-treated chymotrypsin (Bos taurus, UniProt P00766); assay: Protease inhibition test, chymotrypsin; format: biochemical
Description: (§6) A batch containing 50 μl TLCK-treated chymotrypsin (0.1 mg/ml) was incubated for 10 minutes in 12.5% DMSO and 87.5% PBS with 50 μl of a solution having BBI (BBI), reduced BBI (BBI-R), or reduced and alkylated BBI (BBI-A) together with 50 μl PBS and 50 μl of the chymotrypsin substrate acetyl-A-A-P-F-pNa (0.5 mg/ml, of Bachem Heidelberg, Germany). The colored reaction product was detected at 405 nm in a spectrophotometer.
A batch without BBI (0) was run as control, and its measured value was taken as 100% chymotrypsin activity (% CH). The blank value with buffer alone is labeled “-” and indicates the cuvette and buffer solution background.

TPCK-treated trypsin = target: T1, TPCK-treated trypsin (Bos taurus, UniProt P00760); assay: Protease inhibition test, trypsin; format: biochemical; conditions: FIG. 8
T1 sequence (P00760 24-246): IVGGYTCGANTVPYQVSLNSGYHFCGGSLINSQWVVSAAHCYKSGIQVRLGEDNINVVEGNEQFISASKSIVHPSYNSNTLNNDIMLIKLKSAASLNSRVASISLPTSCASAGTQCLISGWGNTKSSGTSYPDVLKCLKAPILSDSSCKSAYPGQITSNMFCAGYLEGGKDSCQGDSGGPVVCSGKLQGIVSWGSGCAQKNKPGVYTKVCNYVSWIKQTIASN
Description: as §6
If inhibition of the protease trypsin (see Example 4, FIG. 8) was to be determined, TPCK-treated trypsin (0.1 mg/ml) and the peptide CBZ-R-pNa (1 mg/ml) as substrate were used, and the test was otherwise performed as described.

Normal human fibroblasts [2] = assay: Clonogenic assay with normal human fibroblasts under ionizing radiation; format: cell-based; conditions: for radioprotective effect compared with complete BBI and the other peptides (clonogenic assay): single dose of 4 Gy, peptides 80 μM, complete BBI 10 μM, FIG. 5; for influence on survival of the cells without irradiation (clonogenic assay): 0 Gy, 10 μM, 16 h incubation, FIG. 1
Description: The examination of the radioprotective effect of BBI and of modified forms of BBI was performed as a so-called clonogenic assay, which is described, for example, in K. Dittmann et al., Radiotherapy and Oncology 34 (1995), pages 137-143, and is explained briefly below.
as §1, §2, §3
This was followed by irradiation with ionizing radiation, the energy dose being either 2 or 4 gray (Gy). This energy dose corresponds to the entire converted radiation energy given in mass unit Joule/kg=(gray). A 6 MeV linear accelerator (Mevatron, Siemens) was used for irradiation.
as §4, §5

[3] = target: chymotrypsin (TLCK-treated); assay: cell-based or functional assay
trypsin (TPCK-treated) = assay: cell-based or functional assay
Normal human fibroblasts [4] = conditions: publication of Dittmann et al.; cited from earlier work
[5] = FIG. 2, control without BBI = 100% chymotrypsin activity

Q: For “Peptide P4: nonapeptide SEQ ID NO: 2 (serine to valine exchange), terminal cysteines not crosslinked; acetyl and amide protective groups (Ac-CALVYPAQC-NH2; cysteine pairing not given here)”, which “increase in clonogenic survival of the human skin fibroblasts compared to the untreated cells” value (human skin fibroblasts) is on record?
A: Its value is “significantly increased”.

Q: And the “effect on clonogenic survival compared with complete BBI” value (human skin fibroblasts)?
A: The value was “less of an effect than complete BBI”.

Q: What about the “inhibition of chymotrypsin activity” value ([1]; 0.1 mM, FIG. 7) of the same molecule?
A: The value was “only a few percent or not at all”.

Q: And the “inhibition of the activity of trypsin” value (TPCK-treated trypsin; 0.1 mM)?
A: Its value is “no effect on the activity of trypsin”.

Q: What does the source list for “Peptide P1: nonapeptide SEQ ID NO: 1, terminal cysteine residues crosslinked with a disulfide bond; acetyl and amide protective groups (Ac-CALSYPAQC-NH2; disulfide 1-9; SMILES CC(=O)N[C@H]1CSSC[C@@H](C(N)=O)NC(=O)[C@H](CCC(N)=O)NC(=O)[C@H](C)NC(=O)[C@@H]2CCCN2C(=O)[C@H](Cc2ccc(O)cc2)NC(=O)[C@H](CO)NC(=O)[C@H](CC(C)C)NC(=O)[C@H](C)NC1=O)”?
A: radioprotective effect compared with complete BBI and the other peptides (clonogenic assay) (Normal human fibroblasts [2]): even more pronounced radioprotective effect than peptides P2 (heptapeptide) and P4; effect on clonogenic survival compared with complete BBI (human skin fibroblasts): just as pronounced an effect as the addition of complete BBI; inhibition of chymotrypsin activity ([1]; 0.1 mM, FIG. 7): only a few percent or not at all; inhibition of the activity of trypsin (TPCK-treated trypsin; 0.1 mM): no effect on the activity of trypsin

Q: What does the source list for “Peptide P3: nonapeptide SEQ ID NO: 1, terminal cysteine residues not crosslinked; acetyl and amide protective groups (Ac-CALSYPAQC-NH2; cysteine pairing not given here)”?
A: radioprotective effect compared with complete BBI and the other peptides (clonogenic assay) (Normal human fibroblasts [2]): even more pronounced radioprotective effect than peptides P2 (heptapeptide) and P4; effect on clonogenic survival, further increase over that of complete BBI (human skin fibroblasts): 20%; inhibition of chymotrypsin activity ([1]; 0.1 mM, FIG. 7): only a few percent or not at all; inhibition of the activity of trypsin (TPCK-treated trypsin; 0.1 mM): no effect on the activity of trypsin

Q: For “Peptide P2: heptapeptide SEQ ID NO: 3, no cysteine residues, linear; acetyl and amide protective groups (Ac-ALSYPAQ-NH2)”, which “effect on clonogenic survival, further increase over that of complete BBI” value (human skin fibroblasts) is on record?
A: The value was 20%.

Q: And the “inhibition of chymotrypsin activity” value ([1]; 0.1 mM, FIG. 7)?
A: The value was “only a few percent or not at all”.

Q: And the “inhibition of the activity of trypsin” value (TPCK-treated trypsin; 0.1 mM)?
A: The value was “no effect on the activity of trypsin”.

B1: Bowman-Birk Protease Inhibitor (BBI), complete (protein, soybean, UniProt P01055 40-110, looked up)
chain: DDESSKPCCDQCACTKSNPPQCRCSDMRLNSCHSACKSCICALSYPAQCFCVDITDFCYEPCKPSEDDKEN
Q: What does the source list for B1?
A: inhibition of chymotrypsin activity (substrate acetyl-A-A-P-F-pNa, 405 nm) [3]: 80%; inhibition of chymotrypsin activity at 0.05 mM BBI [3]: 80%; inhibition of chymotrypsin activity at 0.1 mM BBI [3]: 90%; inhibition of trypsin activity at 0.05 mM BBI (substrate CBZ-R-pNa) (trypsin (TPCK-treated)): > 90%; inhibition of trypsin activity at 0.1 mM BBI (substrate CBZ-R-pNa) (trypsin (TPCK-treated)): > 90%

B2: reduced BBI (BBI-R) (protein, soybean, UniProt P01055 40-110, looked up)
chain: DDESSKPCCDQCACTKSNPPQCRCSDMRLNSCHSACKSCICALSYPAQCFCVDITDFCYEPCKPSEDDKEN
modifications: pretreated with dithiothreitol (DTT) so that all the disulfide bonds in the BBI were cleaved (cysteines reduced)
Q: Which inhibition of chymotrypsin activity (substrate acetyl-A-A-P-F-pNa, 405 nm) [3] does the source give for B2 here?
A: Its inhibition of chymotrypsin activity (substrate acetyl-A-A-P-F-pNa, 405 nm) is 30%.

B3: BBI-R: complete BBI pretreated with the reducing agent dithiothreitol (DTT), so that all the disulfide bonds were cleaved (protein)
chain: DDESSKPCCDQCACTKSNPPQCRCSDMRLNSCHSACKSCICALSYPAQCFCVDITDFCYEPCKPSEDDKEN
modifications: cyclised or stapled
notes: complete BBI pretreated with the reducing agent dithiothreitol (DTT), so that all the disulfide bonds were cleaved
Q: For B3, which “influence on survival of the cells without irradiation (clonogenic assay)” value (Normal human fibroblasts [2]) is on record?
A: The value was “does not influence survival of the cells within experimental error”.

Q: What about the “inhibition of chymotrypsin activity” value [1, 5] of the same molecule?
A: The value was “about 30%”.

B4: Bowman-Birk Protease Inhibitor (protein)
chain: DDESSKPCCDQCACTKSNPPQCRCSDMRLNSCHSACKSCICALSYPAQCFCVDITDFCYEPCKPSEDDKEN
notes: complete BBI (from Sigma Biochemicals)
Q: For B4, which “influence on survival of the cells without irradiation (clonogenic assay)” value (Normal human fibroblasts [2]) is on record?
A: Its value is “does not influence survival of the cells within experimental error”.

Q: And the “increase in clonogenic survival of the human skin fibroblasts compared to the untreated cells” value (human skin fibroblasts)?
A: The value was “approximately 40%”.

Q: What about the “inhibition of chymotrypsin activity” value ([1]; 0.05 mM, FIG. 7) of the same molecule?
A: The value was 80%.

Q: And the “inhibition of chymotrypsin activity” value ([1]; 0.1 mM, FIG. 7)?
A: The value was 90%.

Q: And the “inhibition of chymotrypsin activity” value [1, 5]?
A: The value was 80%.

Q: And the “inhibition of the activity of trypsin” value (TPCK-treated trypsin; 0.05 mM)?
A: The value was “more than 90%”.

Q: What about the “inhibition of the activity of trypsin” value (TPCK-treated trypsin; 0.1 mM) of the same molecule?
A: Its value is “more than 90%”.

Q: And the “radiation-induced mortality of cultivated human fibroblasts” value (Normal human fibroblasts [4])?
A: Its value is “decreases the radiation-induced mortality”.

B5: BBI-A: BBI first reduced, cysteine residues then alkylated with iodoacetamide to prevent reoxidation (protein)
chain: DDESSKPCCDQCACTKSNPPQCRCSDMRLNSCHSACKSCICALSYPAQCFCVDITDFCYEPCKPSEDDKEN
Q: Which “influence on survival of the cells without irradiation (clonogenic assay)” value (Normal human fibroblasts [2]) does the source give for B5 here?
A: The value was “does not influence survival of the cells within experimental error”.

Q: And the “inhibition of chymotrypsin activity” value [1, 5]?
A: Its value is “no longer capable of inhibiting chymotrypsin activity”.
